Among the data in patent US20120301899A1 (AGENCY FOR SCIENCE TECHNOLOGY AND RESEARCH, published 2012) are Kd, koff and kon values, retold here.

The experiment concerns the target T1, podocalyxin-like protein-1 (PODXL) (human, UniProt O00592 23-558).
T1 construct: whole, on cells; In the flow cytometry experiments the target is undifferentiated hESC; also called PCLPI; Podocalyxin-like protein 1 precursor
T1 sequence (looked up): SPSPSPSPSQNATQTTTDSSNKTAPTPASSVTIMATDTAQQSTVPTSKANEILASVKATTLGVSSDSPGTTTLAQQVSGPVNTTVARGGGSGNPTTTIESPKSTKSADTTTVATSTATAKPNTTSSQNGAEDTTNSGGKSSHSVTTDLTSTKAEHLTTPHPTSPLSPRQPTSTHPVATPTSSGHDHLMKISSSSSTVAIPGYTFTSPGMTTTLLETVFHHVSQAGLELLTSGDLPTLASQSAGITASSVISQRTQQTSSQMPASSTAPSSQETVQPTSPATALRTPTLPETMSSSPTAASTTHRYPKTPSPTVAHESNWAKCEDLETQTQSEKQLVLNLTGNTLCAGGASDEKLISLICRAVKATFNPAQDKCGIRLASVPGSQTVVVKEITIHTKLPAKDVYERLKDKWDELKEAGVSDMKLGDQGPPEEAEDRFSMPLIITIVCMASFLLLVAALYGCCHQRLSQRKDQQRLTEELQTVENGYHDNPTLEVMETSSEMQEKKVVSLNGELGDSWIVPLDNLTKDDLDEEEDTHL
The experiment is described as follows: kinetics of binding to PODXL on the surface of hESCs; method not stated.

B1: monoclonal antibody mAb 84 (antibody, V domains shown)
VH: QVQLQQSGGGLVQPGGSMKLSCVASGFTFSNYWMNWVRQSPEKGLEWVAEIRLKSNNYATHYAESVKGRFTISRDDSKSSVYLQMNNLRAEDTGIYYCTGERAWGQGTTVTVSS
VL: DIELTQSPAIMSASPGEKVTMTCSASSSVNYMYWYQQKPGSSPRLLIYDTSNLASGVPVRFSGSGSGTSYSLTISRMEAEDAATYYCQQWSSYPYTFGGGTKLEIKR
For orientation: Kd means the equilibrium constant for the complex coming apart. A higher Kd goes with weaker binding. Usually koff stands for the rate constant with which the complex falls apart. The low end stands for a long-lived complex, the high end for a short-lived complex. In general, kon refers to the second-order rate constant of association. A lower kon goes with slow association. Take B1: the affinity, expressed as Kd, was 40 nM; the koff turned out to be 0.0029 s⁻¹; the kon worked out at 71000 M⁻¹ s⁻¹.
